Measured values taken from patent US20210253725A1 (BIONTECH, published 2021).

T1: CD27 expressed on the cell surface of HT1080_CD27 cells (human, UniProt P26842 20-260)
T1 construct: whole, on cells; species not restated for the HT1080 transfectant
T1 sequence (looked up): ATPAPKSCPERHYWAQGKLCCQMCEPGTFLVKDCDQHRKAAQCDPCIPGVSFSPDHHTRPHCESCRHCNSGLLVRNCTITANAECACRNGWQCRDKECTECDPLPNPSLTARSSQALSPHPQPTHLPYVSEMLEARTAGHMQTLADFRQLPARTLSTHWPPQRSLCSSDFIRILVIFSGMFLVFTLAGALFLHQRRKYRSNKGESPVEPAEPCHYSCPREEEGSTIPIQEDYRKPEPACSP

T2: CD27 protein (His-tagged, Sino Biological Inc. 10039-H08B1) (human, UniProt P26842 20-192)
T2 construct: bought protein coated on ELISA plates; also called TNFRSF7; not shown: His tag
T2 sequence (looked up): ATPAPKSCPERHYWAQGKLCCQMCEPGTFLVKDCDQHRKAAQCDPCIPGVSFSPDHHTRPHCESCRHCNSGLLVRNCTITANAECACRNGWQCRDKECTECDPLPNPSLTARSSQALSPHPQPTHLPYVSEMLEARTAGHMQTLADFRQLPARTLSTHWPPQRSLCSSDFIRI


Assays:
[1] = target: T1, CD27 expressed on the cell surface of …; experiment: HT1080_CD27 cells, imaging; note: test concentration or dose not given here
[2] = target: T1, CD27 expressed on the cell surface of …; experiment: cell-based or functional assay
[3] = target: T2, CD27 protein (His-tagged, Sino …); experiment: ELISA, coated His-tagged CD27; note: test concentration or dose not given here
[4] = target: T1, CD27 expressed on the cell surface of …; experiment: cell-based or functional assay; remark: listed apart in the source
Throughout, for Functional assay Cross-linked by F(ab′)2 fragment IL-8: test concentration or dose not given here.
Throughout, for Functional assay IL-8: test concentration or dose not given here.

Binder	Cellular binding assay [RFU] [1] [RFU]	Functional assay Cross-linked by F(ab′)2 fragment IL-8 [2] [abs. corr.]	Functional assay IL-8 [2] [abs. corr.]	ELISA [abs. corr.] [3] [abs. corr.]	EC 50 (IL-8 release, cross-linked) [4] [µg/mL]
P018.S.03.A.G05 (antibody, V domains shown, V regions on human Ig constant parts; also called AB27_58) VH: QSLEESGGDLVKPEGSLTLTCTASGFSFSSGGWICWVRQAPGRGLEWIACIYVGSSGTTHYASWAKGRFTISKTSSTTVTLQMTSLTAADTATYFCARGAVYGGGSYDNFHLWGPGTLVTVSS VL: AYDMTQTPASVSEPVGGTVTIKCQASQSIGSYLSWYQQKPGQRPKLLIYAASTLASGVQSRFKGSGSGTDYTLTISGVQSDDAATYYCQQGYNISNLDNTFGGGTEVVVK	269	1.27	0.031	2.98	–
P018.S.06.A.A05 (antibody, V domains shown, V regions on human Ig constant parts; also called AB27_97) VH: QSLEESGGRLVTPGTPLTLTCTVSGIDLSSYAMGWVRQAPGKGLELIGLIYASNRTHYATWAKGRFTISKSSTTVDLKATSLTTEDTATYFCGRYGRGSGGYYYGMDLWGPGTLVTVSS VL: DVVMTQTPASVEAAVGGTVTIKCQASQSGDNYLSWYQQKSGQPPKLLIYLASTLASGVPSRFRGSRSGTEYTLTISDLESADAATYYCQNYCAGSGVCVGVAFGGGTEVVVK	140	1.09	0.433	2.95	–
P018.S.06.A.H05 (antibody, V domains shown, V regions on human Ig constant parts; also called AB27_112) VH: QSLEESGGDLVQPEGSLTLTCKASGFDFSSTYWICWVRQAPGKGLEWIGCIDDSYAYTYYASWAKGRFTISKPSSTTVTLQVTSLTVADTATYFCARDGYPGYGVGSFNLWGPGTLVTVSS VL: AIVMTQTPSSKSVPVGDTVTINCQASESVYSNNRLAWFQQKPGQPPKLLIYLASTLASGVPSRFKGSGSGTQFTLTISDVVSDDAATYYCAGYKSYSDDGTGFGGGTEVVVK	308	1.56	0.278	2.98	–
P018.S.05.A.E03 (antibody, V domains shown, V regions on human Ig constant parts; also called AB27_89) VH: QSLEESGGRLVTPGGSLTLTCTVSGIDLSSYAMGWVRQAPGKGLEWIGYITYGGSTYYANWVNGRFTISKTSTMVDLKMTSLTAADTATYFCARLRAPYYYRIYFNLWGPGTLVTVSS VL: ALVMTQTPSSVEAAVGGTVTIKCQASQNIISALAWYQQKPGQPPKLLIYDASNLESGVPSRFKGSGSGTDFTLTISDLESADAATYYCQGAYDTNINDFGGGTEVVVK	322	1.92	0.208	3.07	–
P018.S.06.A.B01 (antibody, V domains shown, V regions on human Ig constant parts; also called AB27_98) VH: QSLEESGGGLVKPEGSLTLTCTASGFSFSSSYWICWVRQAPGKGLEWIGCIYAGTFSDTFYASWTKGRFTISKTSSTTVTLQMTSLTGADTATYFCARGHYYYTDNYTANGYGRGLTRLDLWGQGTLVTVSS VL: AAVLTQTPSPVSAAVGGTVTISCQASQSVYNNNNLAWYQQKAGQPPKLLIYGASNLESGVPSRFKGSGSGTQFTLTISDLESDDAASYYCAGGYTTSGDNGFGGGTEVVVK	279	1.18	0.106	2.94	–
P018.S.09.A.C02 (antibody, V domains shown, V regions on human Ig constant parts; also called AB27_147) VH: QSVEESGGRLVTPGTPLTLTCTVSGIDLSSYVMSWVRQAPGKGLEWIGYIDYGGTAYYASWAKGRFTISKTSTTVELKITSPTIEDTATYFCARGGYGGYTLVTALWGPGTLVTVSS VL: DIVMTQTPASVSEPVGGTVTIKCQASQSISSYLSWYQQKPGQPPKLLIYSTSTLASGVSSRFKGSGSGTEYTLTISDLESADAATYYCQTYYGGGPFGNGFGGGTEVVVK	323	1.07	0.07	2.94	–
P018.S.02.A.B01 (antibody, V domains shown, V regions on human Ig constant parts; also called AB27_29) VH: QSVEESGGRLVTPGTPLTLTCTVSGMDLSSYSMSWVRQAPGEGLEYIGFIGSSGGTYYASWAKGRFTISRTSTTVDLNITSPTTEDTATYFCARMLAGVYTRLDLWGQGTLVTVSS VL: AQVLTQTPSSVSAAVGGTVTINCQASQSISSSYCSWYQQKPGQPPKLLIYKASTLASGVPSRFKGSGSGTQFTLTISDVQSDDAATYYCAGDFIASSGNAFGGGTEVVVK	332	1.42	0.538	2.93	–
P018.S.05.A.D06 (antibody, V domains shown, V regions on human Ig constant parts; also called AB27_88) VH: QSVEESGGRLVTPGTPLTLTCTVSGFSLSSYWMSWVRQAPGKGLEWIGFIYGGSGDKYYASWAKGRFAISKTSTTVDLKITSPTTEDTATYFCARGGDGDGTYSSLWGQGTLVTVSS VL: AQVLTQTPSPVSAAVGGTVTISCQSSESVAGKNLAWYQQKPGQPPKVLIYGTSNLASRVPSRFRGSGSGTQFTLTISDLESDDAATYYCQGYYSGGIYGFGGGTEVVVE	323	1.23	0.338	2.93	–

Continued, values first:

Cellular binding assay [RFU] [1] [RFU]	Functional assay Cross-linked by F(ab′)2 fragment IL-8 [2] [abs. corr.]	Functional assay IL-8 [2] [abs. corr.]	ELISA [abs. corr.] [3] [abs. corr.]	EC 50 (IL-8 release, cross-linked) [4] [µg/mL]	Binder
218	2.03	0.58	2.98	–	P018.S.09.A.F06 (antibody, V domains shown, V regions on human Ig constant parts; also called AB27_158) VH: QSVEESGGRLVTPGGSLTLTCSVSGIDLSSYAMNWVRQAPGKGLEWIGIISTGGSTYYANWAKGRFTISKTSTTVDLKITSPTTEDTATYICARDVGGTTVPYYFDLWGPGTLVTVSS VL: AYDMTQTPASMEVAVGGTVTIKCQASESISSWLAWYQQKPGQPPKPLIYEASRLASGVPSRFKGSGSGTEFTLTISGVESADAATYYCQQGYGSSDVHNIFGGGTEVVVK
305	1.61	0.172	2.98	–	P018.S.09.A.E02 (antibody, V domains shown, V regions on human Ig constant parts; also called AB27_153) VH: QSLEESGGRLVTPGTPLTLTCTASGFTISSHHMTWVRQAPGEGLEWLGVIFPSGHTYYTSWAKGRFTISRTSTTVDLKMASLTIEDTATYFCVRDVGYFTLWGQGTLVTVSS VL: AQVLTQTPSPVSAAVGGTVTISCQSSESVGGNNWLAWYQQKLGQPPKLLIYGASTLASGVPSRFSGSGSGTQFTLTISEVQSDDAATYYCQGYYSDVTNAFGGGTEVVVE
266	1.1	-0.046	2.93	–	P018.S.10.A.C01 (antibody, V domains shown, V regions on human Ig constant parts; also called AB27_170) VH: QSVEESGGRLVTPGTPLTLTCTLSGFSLSNYAMSWVRQAPGKGLEWIGVIYTSGTTHYASWAKGRFTISKTSTTVDLRMTSLTTEDTATYFCARSRYYGSGWGGYYFNLWGQGTLVTVSS VL: DVVMTQTPSPVSAAVGGTVTINCQASEDIYSLLAWYQQKPGQRPKLLIYGASNLESGVPSRFKGSGSGTEYTLTISGVQSADAATYYCHGGTYTGSADINAFGGGTEVVVE
395	1.39	0.23	3.02	–	P018.S.10.A.E02 (antibody, V domains shown, V regions on human Ig constant parts; also called AB27_176) VH: QEQLEESGGDLVKPEGSLTLTCTASGFSFSSSFYMCWVRQAPGKGLEWVACIYAEDSDYTYYASWAKGRFTISKTSSTTVTLQMTSLTAADTATYFCAREILYPTNTDSFDLWGPGTLVTVSS VL: AFELTQTPSSVEAAVGGTVTIKCQASESFSSRLAWYQQKPGQPPKLLIYRASTLASGVPSRFKGSGSGTDFTLTISDLESADAAAYYCQAYVGISSGGYAFGGGTEVVVG
313	1.11	-0.155	2.96	–	P018.S.10.A.H05 (antibody, V domains shown, V regions on human Ig constant parts; also called AB27_186) VH: QSLEESGGRLVTPGTPLTLTCTASGFSLSTYYMSWVRQAPGKGLEWIGIIYTSGSTYYASWAKGRFTISRNSTTVDLKITSPTTEDTATYFCARSRVPGDTTGLYYFNLWGPGTLVTVSS VL: ALVMTQTPASVSAAVEGTVTINCQASENIYSNLAWYQQKPGQPPKLLIYHTSNLASGVPSRFKGSGAGTEFTLTISDLESDDAATYYCQSAYDSSSSDTFTFGGGTEVVVK
–	–	–	–	0.122	P018.S.10.A.H02 (antibody, V domains shown) VH: QSLEESGGRLVTPGGSLTLTCTVSGIDLSSYAMGWFRQAPGKGLEYIGIIYSSGSTWFANWVKGRFTISKTSTTVDLKMTSLTTEDTATYFCARYSAADHGDKFKLWGQGTLVTVSS VL: AAVLTQTPSPVSAAVGGTVSISCQSSKNIFDNTRLSWFQQKPGQPPKQLIYGASTLASGVPSRFSGSGSGTQFTLTISGVQSDDAATYYCLGEYSSDSDTSFGGGTEVVVK
–	–	–	–	0.221	P018.S.09.A.C06 (antibody, V domains shown) VH: QSVEESGGRLVTPGTPLTLTCTVSGFSLSTYAMGWVRQAPGKGLEWIGIIYTGGSTYYASWAEGRFTISKTSTTVDLKITSPTPEDTATYFCTRDLGATYDYFDLWGQGTLVTVSS VL: AYDMTQTPASVEVAVGGTVTIKCQASQSISTALAWYQQKPGQRPKLLIYDTSDLASGVPSRFSGSGSGTEFTLTISGVESADAATYYCQQGYRHTNVDNPFGGGTGVVVK
–	–	–	–	0.234	P018.S.10.A.E04 (antibody, V domains shown) VH: QSLEESGGDLVKPGASLTLTCTASGFSFSSSYWICWVRQAPGKGLEWVACISAPGSGSTFDASWAKGRFTISKTSSTTVTLQMTSLTAADTATYFCARFYAGGSGDYFDLWGPGTLVTVSS VL: QIVMTQTPSSTSEPVGGTVSIKCQASQNIGSYLAWYQQKPGQPPKVLIYTTSDLASGVPSRFKGSGSGTQFTLTISDLESDDAATYYCLGVYGYSSDDVAFGGGTEVVVK
